For assay [1], the target named is T1, recombinant LDHA (human, UniProt P00338 1-332).
The target of assay [2] is T1, recombinant LDHA. This is another data set of the same source.

By IC50 is commonly meant the concentration at which inhibition is half-maximal. A word on the Ki: it is a measure of affinity in units of concentration, obtained from inhibition or displacement.

B1: FLCN-10 peptide (peptide)
peptide: AQRMNTAFTP
Turning to B1, the half-inhibitory concentration (IC50) with recombinant LDHA [1] worked out at 82.2 nM. Moreover, in the assay with recombinant LDHA [2], the Ki was 57.4 nM.
